Test results reported in the Human Domainome abundance scans (Beltran et al. 2025).

B1: Protein C-ets-1, residues 55 to 135; numbered along this chain, P14921 (parent)
chain: GFTKEQQRLGIPKDPRQWTETHVRDWVMWAVNEFSLKGVDFQKFCMNGAALCALGKDCFLELAPDFVGDILWEHLEILQKE

Variants of: B1
Assay: abundance fitness (aPCA) (normalised: wild type 0, dead -1); higher = more abundant; growth selection in yeast, the domain comes from the species named
Details: Homo sapiens

Abundance fitness, by site and new letter:
F41: I 0.022, D -0.053, V 0.044, P 0.059, S -0.042, N -0.039, R -0.094, E -0.031, G -0.128, T 0.007, W -0.1, L 0.051, Q -0.134, H 0.045, C -0.034, M 0.056, K -0.072, Y 0.055
Q42: P -0.214, D -0.029, A -0.071, L -0.307, Y -0.291, K -0.075, R -0.017, I -0.619, F -0.664, V -0.358, S -0.007, N -0.047, G 0.007, C -0.259, M -0.237, H -0.068, E 0.021, T -0.052, W -0.681
A49: H -0.058, K 0.085, P -0.137, V -0.162, M -0.055, W -0.3, C -0.372, L -0.132, N -0.139, G -0.126, T -0.048, F -0.339, I -0.237, R -0.013, Q -0.011, D -0.04, Y -0.262, E 0.02
V39: A -0.511, N -0.755, G -0.714, D -0.699, T -0.387, Y -0.688, M -0.267, H -0.537, S -0.624, K -0.533, C -0.194, W -0.445, I -0.061, F -0.239, Q -0.683, L -0.141, R -0.749
S35: T -0.034, P -0.625, L -0.364, W -0.559, A -0.069, C -0.072, Q 0.062, R -0.029, F -0.413, Y -0.288, V -0.381, G 0.012, I -0.539, D 0.017, M -0.142, K -0.012, N -0.178
D40: F -0.685, S -0.164, P -0.343, Q -0.045, V -0.209, I -0.32, H -0.225, T -0.363, G -0.546, L -0.482, C -0.134, A -0.294, R -0.245, E -0.059, N -0.146, W -0.77, K -0.234, Y -0.651, M -0.368
F34: W -0.039, N -0.244, A -0.493, D -0.623, M -0.362, Y -0.023, P -0.886, C -0.428, S -0.52, E -0.425, Q -0.358, R -0.3, L -0.276, K -0.175, I -0.9, H -0.084, T -0.743
E33: S -0.117, I -0.498, T -0.063, K -0.001, A -0.071, M -0.316, R -0.042, Y -0.099, W -0.179, H -0.006, L -0.503, G -0.539, P -0.796, Q -0.099, N -0.078, C -0.132, F -0.134
N32: V -0.111, Y -0.327, Q 0.003, M -0.119, T -0.042, W -0.332, R 0.019, S -0.008, P -0.49
L36: M -0.343, N -0.691, D -0.763, F -0.139, W -0.29, A -0.52, V -0.276, S -0.751, E -1, Q -0.624, I -0.215, R -1.05, Y -0.539, K -0.58, G -0.661, C -0.332
